B1: non-specific serine/threonine protein kinase, O49003 (parent)
chain: MASKGAGGGGGGHEEPQRPKQQLPRDSRGSLEVFNPSSSSAAVEPPSAFRPAARSASPFIEEATGGIEDVGKATQRAAEWGLVLQTNEQTGRPQGVSARSSGGGGSARSSSDDKAVAGAIPRVSEELRAALSAFQQTFVVSDASRPGHPIMYASAGFFNMTGYTSKEVVGRNCRFLQGSGTDPAEIAKIRQALANGSNYCGRVLNYKKDGTAFWNLLTIAPIKDEEGRVLKFIGMQVEVSKYTEGNKDTVVRPNGLPESLIKYDARQKDQARSSVSELLLAIKNPRSLSESTNSTFKRKSQESVGALTGDRPGKRSSESGSRRNSKSGARTSLQKISEVPERGSKSRKSGLYSLMSLLGMGPGNIEKDMLKPRDEDPLLDSDDERPESFDDELRRKEMRRGIDLATTLERIEKNFVITDPRLPDNPIIFASDSFLQLTEYSREEILGRNCRFLQGPETDRATVRKIRDAIDNQTEVTVQLINYTKSGKKFWNLFHLQPMRDQKGDVQYFIGVQLDGTEHVRDAAEREGVMLIKKTAENIDEAAKELPDANLRPEDLWANHSKVVLPKPHMKDSASWRAIQKVLEGGENIDLKHFRPVKPLGSGDTGSVHLVELLNTGEYFAMKAMDKNVMLNRNKVHRANAEREILDMLDHPFLPTLYASFQTKTHICLITDYYPGGELFLLLDRQPLKVLREDAVRFYAAEVVIALEYLHCQGIIYRDLKPENILLHRDGHISLTDFDLSCLTSCRPQVFLPEEANKKSRRKSRSSPIFFAEPMRASNSFVGTEEYIAPEIITGAGHTSAVDWWALGILLYEMLYGYTPFRGKTRQRTFANILHKDIRFPASISVSLPARQLIYRLLHRDPSNRLGSYEGSNEIKEHPFFRGINWALVRGTAPPKLDAPLFPDDTDKGMGDAAAADTHTDMF

Variants of: B1
Conditions: Avena sativa; pH 4; Thermal; CD; Sodium acetate; transition: 2; reversible: partially reversible; structure 2V0U; whole UniProt chain shown
With C450A the Tm was 51 °C and the “change of melting temperature, mutant - wild type (higher = more stable)” value (from here on “change of melting temperature, mutant”) was 0.7 °C.

Same assay, conditions: Avena sativa; pH 4; Thermal; DSC; Sodium acetate; transition: 2; reversible: partially reversible; structure 2V0U; whole UniProt chain shown
In the case of C450A, the Tm is reported as 50.7 °C and the “change of melting temperature, mutant” value is reported as 2.7 °C.

Same assay, conditions: Avena sativa; pH 4; Thermal; fluorescence; Sodium acetate; transition: 2; reversible: partially reversible; structure 2V0U; whole UniProt chain shown
For C450A, the Tm was 49.9 °C and the “change of melting temperature, mutant” value was 2.8 °C.

Same assay, conditions: Avena sativa; pH 7; 20 °C; Urea; fluorescence; sodium phosphate; transition: 2; reversible: no; structure 2V0U; whole UniProt chain shown
With C450A the “ddG of mutation (higher = less stable)” value was -0.48 kcal/mol, the denaturant m value was 1.67 kcal/mol/M and the “denaturant midpoint (higher = more stable)” value was 3.39 M. The unfolding free energy was 6.07 kcal/mol.

Same assay, conditions: Avena sativa; pH 7; Thermal; CD; sodium phosphate; transition: 2; reversible: partially reversible; structure 2V0U; whole UniProt chain shown
For C450A, the Tm was 64.4 °C and the “change of melting temperature, mutant” value was 3.3 °C.

Same assay, conditions: Avena sativa; pH 7; Thermal; DSC; sodium phosphate; transition: 2; reversible: partially reversible; structure 2V0U; whole UniProt chain shown
In the case of C450A, the Tm is reported as 65 °C and the “change of melting temperature, mutant” value is reported as 3.1 °C.

Same assay, conditions: Avena sativa; pH 7; Thermal; fluorescence; sodium phosphate; transition: 2; reversible: partially reversible; structure 2V0U; whole UniProt chain shown
For C450A, the Tm was 63.6 °C and the “change of melting temperature, mutant” value was 3.8 °C.

Same assay, conditions: Avena sativa; pH 8; Thermal; CD; sodium phosphate; transition: 2; reversible: partially reversible; structure 2V0U; whole UniProt chain shown
With C450A the Tm was 64.4 °C and the “change of melting temperature, mutant” value was 2.6 °C.

Same assay, conditions: Avena sativa; pH 8; Thermal; DSC; sodium phosphate; transition: 2; reversible: partially reversible; structure 2V0U; whole UniProt chain shown
In the case of C450A, the Tm is reported as 63.8 °C and the “change of melting temperature, mutant” value is reported as 3.7 °C.

Same assay, conditions: Avena sativa; pH 8; Thermal; fluorescence; sodium phosphate; transition: 2; reversible: partially reversible; structure 2V0U; whole UniProt chain shown
With C450A the Tm was 63.5 °C and the “change of melting temperature, mutant” value was 3.4 °C.

Same assay, conditions: Avena sativa; pH 9; Thermal; DSC; glycine; transition: 2; reversible: partially reversible; structure 2V0U; whole UniProt chain shown
In the case of C450A, the Tm is reported as 66 °C and the “change of melting temperature, mutant” value is reported as 4.2 °C.

Same assay, conditions: Avena sativa; pH 9; Thermal; fluorescence; glycine; transition: 2; reversible: partially reversible; structure 2V0U; whole UniProt chain shown
With C450A the Tm was 63.5 °C and the “change of melting temperature, mutant” value was 2.6 °C.

From FireProtDB (doi:10.1016/j.bpc.2020.106337)
